Experiments:
Rad52 [1] = target: T1, Rad52 (Saccharomyces cerevisiae, UniProt P06778 1-471); assay: fluorescence anisotropy; stoichiometric, too tight to fit; Anisotropy/FRET: 50 mM Tris-acetate pH 7.5, 50 mM KCl, 5 mM MgCl2, 10% glycerol, 1 mM DTT, 0.2 mg/mL BSA, 23 C; stopped flow: 50 mM Tris-acetate pH 7.5, 5 mM Mg; conditions: protein: recombinant; chain copies: 10; label: 5'-FAM; single strand
Rad52ΔC [2] = target: T2, Rad52ΔC (Saccharomyces cerevisiae, UniProt P06778 1-217); assay: as above; conditions: protein: recombinant; chain copies: 10; label: 5'-FAM; single strand
Rad52 [3] = target: T1, Rad52; assay: FRET; 45 nt sufficient to capture FRET; Anisotropy/FRET: 50 mM Tris-acetate pH 7.5, 50 mM KCl, 5 mM MgCl2, 10% glycerol, 1 mM DTT, 0.2 mg/mL BSA, 23 C; stopped flow: 50 mM Tris-acetate pH 7.5, 5 mM Mg; conditions: protein: recombinant; chain copies: 10; label: 5'-Cy5, 3'-Cy3; single strand
Rad52ΔC [4] = target: T2, Rad52ΔC; assay: AUC sedimentation velocity; Anisotropy/FRET: 50 mM Tris-acetate pH 7.5, 50 mM KCl, 5 mM MgCl2, 10% glycerol, 1 mM DTT, 0.2 mg/mL BSA, 23 C; stopped flow: 50 mM Tris-acetate pH 7.5, 5 mM Mg; conditions: protein: recombinant; chain copies: 10; single strand
Rad52 [5] = target: T1, Rad52; assay: AUC sedimentation velocity; 1:1 decamer:DNA; Anisotropy/FRET: 50 mM Tris-acetate pH 7.5, 50 mM KCl, 5 mM MgCl2, 10% glycerol, 1 mM DTT, 0.2 mg/mL BSA, 23 C; stopped flow: 50 mM Tris-acetate pH 7.5, 5 mM Mg; conditions: protein: recombinant; chain copies: 10; single strand
Rad52 [6] = target: T1, Rad52; assay: fluorescence anisotropy; preformed complex, reversible; Anisotropy/FRET: 50 mM Tris-acetate pH 7.5, 50 mM KCl, 5 mM MgCl2, 10% glycerol, 1 mM DTT, 0.2 mg/mL BSA, 23 C; stopped flow: 50 mM Tris-acetate pH 7.5, 5 mM Mg; conditions: protein: recombinant; chain copies: 10; label: 5'-FAM; single strand
Rad52 [7] = target: T1, Rad52; assay: competition; competes with FAM-(dT)70; Anisotropy/FRET: 50 mM Tris-acetate pH 7.5, 50 mM KCl, 5 mM MgCl2, 10% glycerol, 1 mM DTT, 0.2 mg/mL BSA, 23 C; stopped flow: 50 mM Tris-acetate pH 7.5, 5 mM Mg; conditions: protein: recombinant; chain copies: 10; single strand
Rad52 [8] = target: T1, Rad52; assay: tryptophan quenching; profile similar to (dT)84; Anisotropy/FRET: 50 mM Tris-acetate pH 7.5, 50 mM KCl, 5 mM MgCl2, 10% glycerol, 1 mM DTT, 0.2 mg/mL BSA, 23 C; stopped flow: 50 mM Tris-acetate pH 7.5, 5 mM Mg; conditions: protein: recombinant; chain copies: 10; single strand
Rad52 [9] = target: T1, Rad52; assay: tryptophan quenching; high affinity site, two-site sequential model; Anisotropy/FRET: 50 mM Tris-acetate pH 7.5, 50 mM KCl, 5 mM MgCl2, 10% glycerol, 1 mM DTT, 0.2 mg/mL BSA, 23 C; stopped flow: 50 mM Tris-acetate pH 7.5, 5 mM Mg; conditions: protein: recombinant; chain copies: 10; single strand
Rad52 [10] = target: T1, Rad52; assay: tryptophan quenching; lower affinity site, two-site sequential model; Anisotropy/FRET: 50 mM Tris-acetate pH 7.5, 50 mM KCl, 5 mM MgCl2, 10% glycerol, 1 mM DTT, 0.2 mg/mL BSA, 23 C; stopped flow: 50 mM Tris-acetate pH 7.5, 5 mM Mg; conditions: protein: recombinant; chain copies: 10; single strand
Rad52 [11] = target: T1, Rad52; assay: FRET; steady-state wrapping; Anisotropy/FRET: 50 mM Tris-acetate pH 7.5, 50 mM KCl, 5 mM MgCl2, 10% glycerol, 1 mM DTT, 0.2 mg/mL BSA, 23 C; stopped flow: 50 mM Tris-acetate pH 7.5, 5 mM Mg; conditions: protein: recombinant; chain copies: 10; label: 5'-Cy5, 3'-Cy3; single strand
Rad52ΔC [12] = target: T2, Rad52ΔC; assay: as above; conditions: protein: recombinant; chain copies: 10; label: 5'-Cy5, 3'-Cy3; single strand
Rad51 [13] = target: T3, Rad51 (Saccharomyces cerevisiae, UniProt P25454 1-400); assay: FRET; outcompetes prebound Rad52 or Rad52ΔC at steady state; Anisotropy/FRET: 50 mM Tris-acetate pH 7.5, 50 mM KCl, 5 mM MgCl2, 10% glycerol, 1 mM DTT, 0.2 mg/mL BSA, 23 C; stopped flow: 50 mM Tris-acetate pH 7.5, 5 mM Mg; conditions: protein: recombinant; label: 5'-Cy5, 3'-Cy3; single strand
Rad52 [14] = target: T1, Rad52; assay: stopped-flow FRET; Anisotropy/FRET: 50 mM Tris-acetate pH 7.5, 50 mM KCl, 5 mM MgCl2, 10% glycerol, 1 mM DTT, 0.2 mg/mL BSA, 23 C; stopped flow: 50 mM Tris-acetate pH 7.5, 5 mM Mg; conditions: protein: recombinant; chain copies: 10; label: 5'-Cy5, 3'-Cy3; single strand
Rad52ΔC [15] = target: T2, Rad52ΔC; assay: as above; conditions: protein: recombinant; chain copies: 10; label: 5'-Cy5, 3'-Cy3; single strand
Rad51 [16] = target: T3, Rad51; assay: stopped-flow FRET; ATP; filament on Rad52-prebound DNA; Anisotropy/FRET: 50 mM Tris-acetate pH 7.5, 50 mM KCl, 5 mM MgCl2, 10% glycerol, 1 mM DTT, 0.2 mg/mL BSA, 23 C; stopped flow: 50 mM Tris-acetate pH 7.5, 5 mM Mg; conditions: protein: recombinant; label: 5'-Cy5, 3'-Cy3; single strand

Q: Does TTTTTTTTTTTTTTTTTTTTTTTTTTTTTTTTTTT (ssDNA) [FAM-(dT)35] bind (Rad52 [1])?
A: binds

Q: Does TTTTTTTTTTTTTTTTTTTTTTTTTTTTTTTTTTT (ssDNA) [FAM-(dT)35] bind (Rad52ΔC [2])?
A: binds

Q: Does TTTTTTTTTTTTTTTTTTTTTTTTTTTTTTTTTTTTTTTTTTTTT (ssDNA) [Cy5-(dT)45-Cy3] bind (Rad52 [3])?
A: binds

Q: Does TTTTTTTTTTTTTTTTTTTTTTTTTTTTTTTTTTTTTTTTTTTTT (ssDNA) [(dT)45] bind (Rad52ΔC [4])?
A: binds

Q: Does TTTTTTTTTTTTTTTTTTTTTTTTTTTTTTTTTTTTTTTTTTTTT (ssDNA) [(dT)45] bind (Rad52 [5])?
A: binds

B1: FAM-(dT)70 (ssDNA)
DNA: TTTTTTTTTTTTTTTTTTTTTTTTTTTTTTTTTTTTTTTTTTTTTTTTTTTTTTTTTTTTTTTTTTTTTT
Q: Does B1 bind (Rad52 [6])?
A: binds

B2: (dT)70 unlabeled (ssDNA)
DNA: TTTTTTTTTTTTTTTTTTTTTTTTTTTTTTTTTTTTTTTTTTTTTTTTTTTTTTTTTTTTTTTTTTTTTT
Q: Does B2 bind (Rad52 [7])?
A: binds

B3: (dT)54 (ssDNA)
DNA: TTTTTTTTTTTTTTTTTTTTTTTTTTTTTTTTTTTTTTTTTTTTTTTTTTTTTT
Q: Does B3 bind (Rad52 [8])?
A: binds

B4: (dT)84 (ssDNA)
DNA: TTTTTTTTTTTTTTTTTTTTTTTTTTTTTTTTTTTTTTTTTTTTTTTTTTTTTTTTTTTTTTTTTTTTTTTTTTTTTTTTTTTT
Q: What does the source list for B4?
A: Kd (Rad52 [9]): 0.0013 nM; Kd (Rad52 [10]): 28 nM

B5: Cy5-(dT)80-Cy3 (ssDNA)
DNA: TTTTTTTTTTTTTTTTTTTTTTTTTTTTTTTTTTTTTTTTTTTTTTTTTTTTTTTTTTTTTTTTTTTTTTTTTTTTTTTT
Q: Does B5 bind (Rad52 [11])?
A: binds

Q: Does B5 bind (Rad52ΔC [12])?
A: binds

Q: Does B5 bind (Rad51 [13])?
A: binds

B6: Cy5-(dT)97-Cy3 (ssDNA)
DNA: TTTTTTTTTTTTTTTTTTTTTTTTTTTTTTTTTTTTTTTTTTTTTTTTTTTTTTTTTTTTTTTTTTTTTTTTTTTTTTTTTTTTTTTTTTTTTTTTT
Q: Does B6 bind (Rad52 [14])?
A: binds

Q: Does B6 bind (Rad52ΔC [15])?
A: binds

Q: Does B6 bind (Rad51 [16])?
A: binds

B7: (dT)97 (ssDNA)
DNA: TTTTTTTTTTTTTTTTTTTTTTTTTTTTTTTTTTTTTTTTTTTTTTTTTTTTTTTTTTTTTTTTTTTTTTTTTTTTTTTTTTTTTTTTTTTTTTTTT
Q: Does B7 bind (Rad52ΔC [4])?
A: binds

Q: Does B7 bind (Rad52 [5])?
A: binds

Source: publication PMC10556141, “Yeast Rad52 is a homodecamer and possesses BRCA2-like bipartite Rad51 binding modes”
